From PMC7751889 (Molecular cell, 2019)

Molecular target: T1, Med15 (residues 1-651 Δ239-271, Δ373-483), mediator component (yeast, UniProt P19659 1-651, Δ239–271 | Δ373–483)
T1 sequence (looked up): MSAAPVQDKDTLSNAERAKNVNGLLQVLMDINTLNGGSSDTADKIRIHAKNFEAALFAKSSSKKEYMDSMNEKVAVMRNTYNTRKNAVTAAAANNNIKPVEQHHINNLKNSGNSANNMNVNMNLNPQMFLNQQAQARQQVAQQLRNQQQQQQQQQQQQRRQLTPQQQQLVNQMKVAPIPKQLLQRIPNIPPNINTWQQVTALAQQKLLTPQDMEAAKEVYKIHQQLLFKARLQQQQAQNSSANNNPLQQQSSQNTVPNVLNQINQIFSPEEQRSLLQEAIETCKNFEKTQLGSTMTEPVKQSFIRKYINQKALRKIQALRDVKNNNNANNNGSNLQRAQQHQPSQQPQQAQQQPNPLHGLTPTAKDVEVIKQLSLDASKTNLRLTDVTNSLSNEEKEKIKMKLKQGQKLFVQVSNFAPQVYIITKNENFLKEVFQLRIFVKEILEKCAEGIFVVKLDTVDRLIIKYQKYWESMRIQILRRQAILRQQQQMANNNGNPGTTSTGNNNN
Assay: BLI

Kd: 100 nM
B1: Met4 (residues 76 to 160), containing both the UIM and the UIML domains (tandem UBD) (domain or fragment, yeast, UniProt P32389 76-160, looked up)
chain: GNTNLYDHAVTPEILLEQLAYVDNFIPSLDNEFSNVDWNVNTTHNNANNNGADTFSSINANPFDLDEQLAIELSAFADDSFIFPD
modifications: biotin on the Avi tag (BirA)
